Several values for one entry are separate records, joined by “and”; a condition that tells them apart may be missing. Identical values can stand only once. Like-named read-outs stand apart in the source and are kept apart here.
How the values were obtained:
native gel or EMSA [1] = molecular target: the molecule itself; experiment: native gel or EMSA
native gel or EMSA [2] = molecular target: the molecule itself; experiment: native gel or EMSA; remark: listed apart in the source

Row | Protein | stoichiometry N (native gel or EMSA [1]) | stoichiometry N (native gel or EMSA [2])
1 | adiponectin secreted by wild type mouse aortic VSMC (natural protein, UniProt Q60994 18-247, looked up) EDDVTTTEELAPALVPPPKGTCAGWMAGIPGHPGHNGTPGRDGRDGTPGEKGEKGDAGLLGPKGETGDVGMTGAEGPRGFPGTPGRKGEPGEAAYVYRSAFSVGLETRVTVPNVPIRFTKIFYNQQNHYDGSTGKFYCNIPGLYYFSYHITVYMKDVKVSLFKKDKAVLFTYDQYQEKNVDQASGSVLLHLEVGDQVWLQVYGDGDHNGLYADNVNDSTFTGFLLYHDTN | 3 | 
2 | adiponectin, endogenous in human coronary artery VSMC (hCASMC) (natural protein, human (endogenous in hCASMC), UniProt Q15848 19-244, looked up) ETTTQGPGVLLPLPKGACTGWMAGIPGHPGHNGAPGRDGRDGTPGEKGEKGDPGLIGPKGDIGETGVPGAEGPRGFPGIQGRKGEPGEGAYVYRSAFSVGLETYVTIPNMPIRFTKIFYNQQNHYDGSTGKFHCNIPGLYYFAYHITVYMKDVKVSLFKKDKAMLFTYDQYQENNVDQASGSVLLHLEVGDQVWLQVYGEGERNGLYADNDNDSTFTGFLLYHDTN |  | 2 and 3 and 6

Reference: paper PMC3264700 (Journal of Molecular and Cellular Cardiology, 2011)
